In patent publication CN106008708A:

Target: 重组HBx蛋白 (B基因型HBx, GenBank NO.AF100309.1, 大肠杆菌表达) (乙型肝炎病毒(HBV) B基因型)
Assay: ELISA, serial dilution of purified antibody on plates coated with immunogen HBx; positive threshold 0.3

B1: HBx单克隆抗体KY01 (antibody, mouse IgG1, V domains shown)
VH: EVQLQQSGPELVRPGASVKMSCKASGYTFTSYWMHWLKQRPGQGLEWIGMIDPSNSETRLNQKFKDKATLNVDKSSNTAYMQLSSLTSEDSAVYYCAYDGAYWGQGTLVTVSE
VL: DIVLTQSPASLAVSLGQRATISCRASESVDSYGNSFIHWYQQKPGQPPKLLIYRASNLESGIPARFSGSGSRTDFTLTINPVEADDVATYFCQQSNEDPRTFGGGTKLEIKR
B1 showed a 抗体滴度(效价) (dilution factor (1:n)) of 2.5e+06.
